Measured values published in article PMC10952495, “Glycosylation increases active site rigidity leading to improved enzyme stability and turnover” (The Febs Journal, 2023).

B1: pHRP (plant horseradish peroxidase, glycosylated) (Armoracia rusticana) (protein)
chain: QLTPTFYDNSCPNVSNIVRDTIVNELRSDPRIAASILRLHFHDCFVNGCDASILLDNTTSFRTEKDAFGNANSARGFPVIDRMKAAVESACPRTVSCADLLTIAAQQSVTLAGGPSWRVPLGRRDSLQAFLDLANANLPAPFFTLPQLKDSFRNVGLNRSSDLVALSGGHTFGKNQCRFIMDRLYNFSNTGLPDPTLNTTYLQTLRGLCPLNGNLSALVDFDLRTPTIFDNKYYVNLEEQKGLIQSDQELFSSPNATDTIPLVRSFANSTQTFFNAFVEAMDRMGNITPLTGTQGQIRLNCRVVNSNS
notes: native from horseradish root, 8 N-linked glycans, clinical diagnostic grade (Ortho Clinical Diagnostics), with and without C-terminal serine, monomer
B2: rHRP (recombinant horseradish peroxidase, nonglycosylated) (Armoracia rusticana) (protein)
chain: B1 chain

Substrate: Nc1ccccc1N
Assay: purified protein
Type: biochemical, Armoracia rusticana
Conditions: 25.0 °C
[1] = holo enzyme 0.5 nM, 3% v/v H2O2, 50 mM Tris pH 8.0, 298 K
[2] = holo enzyme 10 nM, 3% v/v H2O2, 20 mM Bis-Tris pH 7.0, 298 K

Protein	Km [1] [µM]	kcat [1] [s⁻¹]	kcat/Km [1] [M⁻¹ s⁻¹]	Km [2] [µM]	kcat [2] [s⁻¹]	kcat/Km [2] [M⁻¹ s⁻¹]
B1	920 ± 100	917 ± 53	1e+06			
B2				980 ± 130	86.2 ± 4.7	88200
